Results on 20 molecules are retold here after patent publication US20140370037A1 (published 2014).

In this test the target is T1, human DLL3 antigen (human, UniProt Q9NYJ7 27-492, limits assumed).
T1 construct: also called immobilized human DLL3; recombinant human DLL3
T1 sequence (looked up): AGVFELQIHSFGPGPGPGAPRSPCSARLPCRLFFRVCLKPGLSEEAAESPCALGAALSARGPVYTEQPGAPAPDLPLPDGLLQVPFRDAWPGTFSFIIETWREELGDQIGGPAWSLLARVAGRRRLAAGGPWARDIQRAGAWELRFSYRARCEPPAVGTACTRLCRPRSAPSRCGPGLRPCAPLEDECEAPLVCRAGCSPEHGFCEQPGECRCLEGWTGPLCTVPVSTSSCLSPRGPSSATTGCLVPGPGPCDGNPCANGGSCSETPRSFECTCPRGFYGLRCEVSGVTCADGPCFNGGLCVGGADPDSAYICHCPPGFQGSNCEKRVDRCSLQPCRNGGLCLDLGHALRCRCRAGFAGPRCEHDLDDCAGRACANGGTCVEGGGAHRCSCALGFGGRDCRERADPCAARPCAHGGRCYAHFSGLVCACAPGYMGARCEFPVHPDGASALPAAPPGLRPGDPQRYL
Description: ELISA or flow cytometry screen.

B1: SC16.38 (antibody, V domains shown)
VH: EVQLQQSGAELVKPGASVKLSCTVSGFNIKDTYIHWVKQRPEQGLEWIGRIDPANGNTKYDPKFQGKATITADTSSNTAYLQLSSLTSEDTAVYYCARPTGYFEYWGQGTTLTVSS
VL: QIVLTQSPAIMSASPGEKVTMTCSASSSINYMHWYQQKPGTSPKRWIYDTSKLASGVPARFSGSGSGTSYSLTISSMEAEDAATYYCHQRSTWTFGGGTKLEIK
notes: murine mAb
Consider B1, for which the binding result is “binds”.

B2: SC16.4 (antibody, V domains shown)
VH: QIQLVQSGPELKKPGETVKISCKASGYTFTDYSMHWVKQAPGKGLKWMGWINTETGEPGYADDFKGRFAFSLETSASTAYLQINNLKNEDTATYFCARYDGYAMDYWGQGTSVTVSS
VL: DIQMTQTTSSLSASLGDRVTISCRASQDISNYLNWYQQKPDGTVKLLIYYTSRLHSGVPSRFSGSGSGTDYSLTISNLELEDIATYFCQQGDMLPWTFGGGTKLEIK
notes: murine mAb; also called mAb SC16.4
In the case of B2, the binding result is listed as “binds”.

B3: SC16.35 (antibody, V domains shown)
VH: DVQLQESGPGLVKPSQSLSLTCTVTGYSITSDYAWNWIRQFPGNKLEWMGYISYSGSTSYNPSLKSRISITRDTSKNQFFLQLNSVTTEDTATYYCARFYYGSSYAMDYWGQGTSVTVSS
VL: DIQMTQTTSSLSASLGDRVTISCRASQDISNYLNWYQQKPDGTVKLLIYYTSRLHSGVPSRFSGSGSGTDYSLTISNLEQEDIATYFCQQGNTLPYTFGGGTKLEIK
notes: murine mAb
Consider B3, for which the binding result is “binds”.

B4: SC16.3 (antibody, V domains shown)
VH: QVTLKESGPGILQPSQTLSLTCSFSGFSLSTSGMGVGWIRQPSGKGLEWLAHIWWDDVKRYNPALKSRLTISKDTSSSQVFLKIASVDTADTATYYCARIADYGGDYYAMDYWGQGTSVTVSS
VL: QIVLTQSPAIMSVSLGERVTMTCTASSSVSSSYLHWYQQKPGSSPKLWIYSTSNLASGVPARFSGSGSGTSYFFTISSMEAEDAATYYCHQYHRSPFTFGAGTKLKIR
notes: murine mAb; also called mAb SC16.3
Consider B4, for which the binding result is on record as “binds”.

B5: SC16.30 (antibody, V domains shown)
VH: QVTLKESGPGILQPSQTLSLTCSFSGFSLSTSGMGVGWIRQPSGKGLEWLAHIWWDDVKRYKPALKSRLTVSKDTSSNQVFLKIATVDAADTGTYYCARIVDGHPPFAYWGQGTLVTVSA
VL: QIVLTQSPTIMSASLGERVTMTCTASSSVTSSYLHWYQQKPGSSPKLWIYSTSNLASGVPARFSGSGSGTSYSLTISSMEAEDAATYYCHQFHRSPFTFGSGTKLEIK
notes: murine mAb
B5: the binding result is recorded as “binds”.

B6: SC16.34 (antibody, V domains shown)
VH: QIQLVQSGPELKRPGETVKISCKASGYTFTNYGMNWVKQAPGKGLKWMGWINTYTGDPTYADDFKGRFAFSLETSASTAYLQINNLKNEDTATYFCARIGGNSPSDYWGQGTSLTVSS
VL: SIVMTQTPKFLLVSAGDRVTITCKASQSVSNDVAWYQQKPGQSPKLLIYYASNRYSGVPDRFTGSGYGTDFTFTISTVQAEDLAVYFCQQDYSSPWTFGGGTKLEIK
notes: murine mAb
Turning to B6, the binding result is recorded as “binds”.

B7: SC16.19 (antibody, V domains shown)
VH: EVQLQQSGAELVRPGASVKLSCTASGFNIKDSLLHWVKQRPEKGLEWIGWIDPEDGETKYAPNFQDKATITTDSSSNTAYLQLISLTSVDTAIYYCAYGNYVRHFDYWGQGTTLTVSS
VL: DIQMTQSPSSLSASLGGKVTFTCKASQDIHKYVAWYQHKPGKGPRLLIHYTSTLQPGISSRFSGSGSGRDYSFSISNLEPEDIATYYCLQYNNLYTFGGGTKLEIKR
notes: murine mAb
Consider B7, for which the binding result is listed as “binds”.

B8: SC16.42 (antibody, V domains shown)
VH: QIQLVQSGPELKKPGETVKISCKASGYTFTTAGMQWVQKMPGKGFKWIGWINTHSGEPKYADDFKGRFAFSLETSASTAYLQISNLKDEDTATFFCAPLWSDSSFAYWGQGTLVTVSA
VL: DVLMTQSPLSLSVSLGDQASISCRSSQNIVHSDRYTYLEWYLQKPGQSPKLLIYGVSNRFSGVPDRFSGSGSGTDFTLKISRVEAEDMGVYYCFQGTHVPYTFGGGTKLEIK
notes: murine mAb
With B8, the binding result was “binds”.

B9: SC16.18 (antibody, V domains shown)
VH: EVKLEESGGGLVQPGESMKLSCAASGFTFSDAWMDWVRQSPEKGLEWVAEIRNKANNHATYYAESVKGKFTISRDDSKSRVYLQMNNLRAADTGIYYCTAYSNFAYWGQGTLVTVST
VL: DIQMTQTTSSLSASLGDRVTISCRASQNIINYLNWYQQKPDGTVKLLIYYTSRLHSGVPSRFSGSGSGTDYSLTISNLEPEDIATYYCQQYSERPYTFGGGTKLEIKR
notes: murine mAb
With B9, the binding result is “binds”.

B10: SC16.41 (antibody, V domains shown)
VH: EVKLEESGGGLVQFGGSMKLSCAASGFTFSDAWMDWVRQSPEKGLEWVAEIRNKANNHATYYPESVKGRFTISRDDSKSRVYLQMNNLRAEDTGIYYCTGYSSFAYWGQGTLVTVSA
VL: DIQMTQTTSSLSASLGDRVTISCRASQDVINYLNWYQQKPDGTVKLLIYYTSRLHSGVPSRFSGSGSRTDYSLTISNLEPEDIATYYCQQYSERPYTFGGGTKLEIKR
notes: murine mAb
As for B10, the binding result is listed as “binds”.

B11: SC16.5 (antibody, V domains shown)
VH: QVTLKESGPGILQPSQTLSLTCSFSGFSLSTSGMGVGWIRQPSGEGLEWLADIWWDDNKYYNPSLKSRLTISKDTSSNQVFLKITSVDTADTATYYCARRVNYVYDPYYAMDYWGQGTSVTVSS
VL: QIVLTQSPAIMSASPGEKVTMTCSASSSVSYMHWYQQKSGTSPKRWIYDTSKLASGVPARFSGSGSGTSYSLTISSMEAEDAATYYCQQWTRNPLTFGAGTKLELK
notes: murine mAb
B11: the binding result is “binds”.

B12: SC16.25 (antibody, V domains shown)
VH: QVTLKESGPGILQPSQTLSLTCSFSGFSLSTSGMGVGWIRQPSGEGLEWLTDIWWDDNKYYNPSLKSRLTISKDTSSNQVFLNITSVDTADTATYYCARRVNYYYDPYYAMDYWGQGTSVTVSS
VL: QIVLTQSPAIMSASPGEKVTMTCSASSSVSYMHWYQQKSGTSPKRWIYDSSKLASGVPARFSGSGSGTSYSLTISSMEAEDAATYYCQQWSSNPLTFGAGTKLELK
notes: murine mAb
For the molecule B12, the binding result is “binds”.

B13: SC16.36 (antibody, V domains shown)
VH: QVQLQQSGAELAKPGASVKMSCKASGYTFTTYWMHWVKQRPGQGLEWIGYINPSSGYTEYNQKFKDKATLTADKSSSTAYMQLSSLTSEDSSVYYCARKGSNRGFAYWGQGTLVTVS
VL: ETTVTQSPASLSVTTGEKVTIRCITTPDIDDDMNWYQQKPGEPPNLLISEGNSLRPGVPSRFSSSGYGTNFVFTIENTLSEDVADYYCLQSDNMPFTFGSGTKLEIK
notes: murine mAb
On to B13, for which the binding result is reported as “binds”.

B14: SC16.20 (antibody, V domains shown)
VH: QVQLQQSGTELVRPGTSVRVSCKASGYAFGNHLIEWVKQRPGQGLEWIGVINPGTGGTHYNEKFKDKARLTADKSSNTAYMHLNSLTSDDSAVYFCARSPYDYHEGAMDYWGQGTSVTVSS
VL: EIQMTQSPSSMSASLGDRITITCQATQDIVKNLNWYQQKPGKPPSFLIYYATELAEGVPSRFSGSGSGSDYSLTIRNLESEDFADHYCLQFYEFPFTFGAGTKLELK
notes: murine mAb
Turning to B14, the binding result is recorded as “binds”.

B15: SC16.45 (antibody, V domains shown)
VH: QVQLQQSGADLVRPGTSVKVSCKASGYSFTNYLIEWVKQRPGQGLEWIGVINPGSGGTHYNEKFKDKAVLTADKSSTTAHMQLSSLTSDDSAVYFCARSPYDYNDGAMDYWGQGTSVTVSS
VL: EIQMTQSPSSMSASLGDRITITCQATQDIVKNLNWYQQKPGKPPSFLIYYATELAEGVPARFSGSGSGSDYSLTISNLESEDFADYHCLQFYEFPFTFGAGTKLELK
notes: murine mAb
B15: the binding result is listed as “binds”.

B16: SC16.23 (antibody, V domains shown)
VH: QVTLKESGPGILQPSQTLSLTCSFSGFSLSTSNTGIGWIRQPSGTGLEWLAHIWWNDDKYYNPSLKSRLTISKETSNNQVFLKITNVDTADTASYFCVQIGRDYSNYAWYFDVWGAGTTVTVSS
VL: QIVLTQSPAIMSASPGEKVTLTCSASSSVSSRYLYWYQQKPGSSPKLWIYSTSNLASGVPARFSGSGSGTSYSLIISSMEAEDAASYFCHQWSNYPLTFGAGTKLELK
notes: murine mAb
In the case of B16, the binding result is “binds”.

B17: SC16.29 (antibody, V domains shown)
VH: QVQLQQSGAELARPGASVKLSCKASGYTFTDQYINWVKQRTGQGLEWIGEIYPGRGNTYYNEKFKGKATLTADKSSSTAYMQLSSLTSEDSAVYFCAREDGGYDDAWFAYWGQGTLVTVSA
VL: QIVLTQSPAIMSASPGEKVTITCSASSSVSYMHWFQQKPGTSPKLWIYTTSNLASGVPARFSGSGSGTSYSLTVSRMEAEDAATYYCQQRSLYPYTFGGGTKVEIK
notes: murine mAb
As for B17, the binding result is on record as “binds”.

B18: SC16.21 (antibody, V domains shown)
VH: QVQLQQSGPELVKPGASVKISCKASGYAFSSSWMNWVKQRPGKGLEWIGRIYPGDGDTNYNGKFKGKATLTADKSSSTAYMQLSSLTSEDSAVYFCAMGIYNYDGSRYYSMDYWGQGTSVTVSS
VL: DIVMTQSPSSLAMSVGQKVTMSCKSSQSLLNSSNQKNYLAWYQQEPGQSPKLLVSFASTRESGVPDRFTGSGSGTDFTLTISGVQAEDLAVYYCQQHYSIPLTFGAGTKLELK
notes: murine mAb
Take B18: the binding result was “binds”.

B19: SC16.26 (antibody, V domains shown)
VH: QIQLVQSGPELKKPGETVKISCKASGYSFTDYSMHWVKQAPGKGLKWMGWINTETVEPTYADDFMGRFAFSLETSASTAFLQINNLENEDTATYFCARFGSYAMDYWGQGTS
VL: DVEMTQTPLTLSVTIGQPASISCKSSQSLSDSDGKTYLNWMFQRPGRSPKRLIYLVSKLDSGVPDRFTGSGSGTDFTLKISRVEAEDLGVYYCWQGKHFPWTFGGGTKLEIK
notes: murine mAb
Regarding B19, the binding result is on record as “binds”.

B20: SC16.22 (antibody, V domains shown)
VH: QVQLQQPGAELVKPGASVKLSCKASGYTFTTYWMHWVKQRPGQGLEWIGEIDPSDSYTYYNQKFKGKATLTVDKSSSTAYMQLSSLTSEDSAVYYCARGDYGNPYAMDYWGQGSSVTVSS
VL: DIQMTQTTSSLSASLGDRVTISCRASQDIKNYLNWYQQKPDGTVKPLIYYTSRVHSGVPSRFSGSGSGTDYSLTISNLEQEDIATYFCQQGYTLPFTFGSGTKLE
notes: murine mAb
As to B20, the binding result is reported as “binds”.
